Test results published in patent US10864251B2, “Peptides of syndecan-1 for inhibiting angiogenesis” (Wisconsin Alumni Research Foundation, priority 2006, dated 2020).

Test system: mouse aortic endothelial cells
Assay: Cell spreading on VN, mouse aortic endothelial cells
Type: cell-based
Conditions: 1 μM competitor
Method: FIGS. 10A-10D—Dependence of HMEC cell attachment and spreading on integrin activation by Sdc1 and its inhibition by SSTN. (FIG. 10A) HMECs were plated for 2 hr either on Sdc1-specific antibody B-B4 to engage Sdc1 or on VN (10 μg/ml coating concentration) to engage the αvβ3 and αvβ5 integrins. Blocking antibodies LM609 (10 μg/ml, specific for αvβ3) and P1F6 (10 μg/ml, specific for αvβ5), SSTN (0.5 μM) or recombinant mouse Sdc1 ectodomain (mS1ED, 5 μM) were added. The ligand mimetic antibody WOW1 was used to detect activated αvβ3 integrin on cells plated on B-B4. (FIG. 10B) HMECs were treated with siRNA oligo specific for human Sdc1 for 48 hr prior to plating on VN. Sdc1 expression was quantified by flow cytometry using human Sdc1-specific mAb B-B4 or a control mouse IgG. (FIG. 10C-10D) The percentage of cell attaching or attaching and spreading was quantified for HMECs, HAEC and MAECs plated on VN for 24 hr in the presence of mS1ED or SSTN, or after siRNA silencing of Sdc1 expression in the presence of mAb LM609 to block αvβ3 integrin, P1F6 to block αvβ5 integrin, or both antibodies.
The next test was whether agents that target Sdc1, especially competition with recombinant S1ED, will block the activity of these two integrins and thus block their interaction with VN. […]

B1: S1ED: recombinant mouse Sdc1 ectodomain (amino acids 18-251), expressed in bacteria as GST fusion or 6×His-tagged protein (protein)
chain: QPALPQIVAVNVPPEDQDGSGDDSDNFSGSGTGALPDTLSRQTPSTWKDVWLLTATPTAPEPTSSNTETAFTSVLPAGEKPEEGEPVLHVEAEPGFTARDKEKEVTTRPRETVQLPITQRASTVRVTTAQAAVTSHPHGGMQPGLHETSAPTAPGQPDHQPPRVEGGGTSVIKEVVEDGTANQLPAGEGSGEQDFTFETSGENTAVAAVEPGLRNQPPVDEGATGASQSLLDRK
modifications: left off: a dimerising Fc or GST
notes: recombinant mouse Sdc1 ectodomain (amino acids 18-251), expressed in bacteria as GST fusion or 6×His-tagged protein
spreading on VN: blocked
